Assay results published in patent publication US20240352105A1, “COMPOSITIONS AND METHODS FOR NEUTRALIZING ANTIGENS” (PACAGEN, INC, priority 2023, published 2024).

How the values were obtained:
[1] = molecular target: T1, recombinant His-tagged Der p1 (dust mite, UniProt P08176 99-320, limits assumed); assay: ELISA, Der p1-His 0.016 µg/mL, repeat 1
T1 sequence (looked up): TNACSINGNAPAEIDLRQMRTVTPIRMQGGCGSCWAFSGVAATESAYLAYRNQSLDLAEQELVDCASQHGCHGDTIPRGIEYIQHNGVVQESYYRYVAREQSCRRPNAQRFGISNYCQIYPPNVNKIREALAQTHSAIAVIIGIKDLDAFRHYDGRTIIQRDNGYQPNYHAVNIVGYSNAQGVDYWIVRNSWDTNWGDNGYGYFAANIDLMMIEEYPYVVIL

[2] = molecular target: T1, recombinant His-tagged Der p1; assay: ELISA, Der p1-His 0.00064 µg/mL, repeat 1
[3] = molecular target: T1, recombinant His-tagged Der p1; assay: ELISA, Der p1-His 2 µg/mL, repeat 1
[4] = molecular target: T1, recombinant His-tagged Der p1; assay: ELISA, Der p1-His 0.4 µg/mL, repeat 2
[5] = molecular target: T1, recombinant His-tagged Der p1; assay: ELISA, Der p1-His 0.0032 µg/mL, repeat 1
[6] = molecular target: T1, recombinant His-tagged Der p1; assay: ELISA, Der p1-His 0.08 µg/mL, repeat 2
[7] = molecular target: T1, recombinant His-tagged Der p1; assay: ELISA, Der p1-His 0.00064 µg/mL, repeat 2
[8] = molecular target: T1, recombinant His-tagged Der p1; assay: ELISA, Der p1-His 10 µg/mL, repeat 2
[9] = molecular target: T1, recombinant His-tagged Der p1; assay: ELISA, Der p1-His 10 µg/mL, repeat 1
[10] = molecular target: T1, recombinant His-tagged Der p1; assay: ELISA, Der p1-His 0.016 µg/mL, repeat 2
[11] = molecular target: T1, recombinant His-tagged Der p1; assay: ELISA, Der p1-His 0.0032 µg/mL, repeat 2
[12] = molecular target: T1, recombinant His-tagged Der p1; assay: ELISA, Der p1-His 2 µg/mL, repeat 2
[13] = molecular target: T1, recombinant His-tagged Der p1; assay: ELISA, Der p1-His 0.4 µg/mL, repeat 1
[14] = molecular target: T1, recombinant His-tagged Der p1; assay: ELISA, Der p1-His 0.08 µg/mL, repeat 1
[15] = molecular target: T2, Fel D1 epitope peptide SDAB22110-115-28AA-2 (cat); assay: ELISA on Fel D1 epitope peptide; the row names two epitopes (SEQ ID NO: 61 and 58) and one EC50
T2 peptide: ENARILKNCVDAKM
Protocol: 2 microgram per milliliter (μg/mL) target antigen is coated in a 96-well plate and ELISA assay is performed after incubation with candidate VHHs. The binding EC50 of each clone is calculated using Prism GraphPad. The positive control antibody is involved as an internal control.
Isolated VHH clones were further validated by performing an ELISA assay as described in Example 1. Binding results are shown in FIG. 15B-15D for the epitope of SEQ ID NO: 61. Binding results are shown in FIG. 16 for the epitope of SEQ ID NO: 59. Binding results are shown in FIG. 17A-17E for the epitope of SEQ ID NO: 60. Binding results are shown in FIG. 18 for the epitope of SEQ ID NO: 58.

[16] = Thermostability (Tm, Tonset, Tagg) by Nanotemper DSF; type: physicochemical; design: key to Tm2 / Tagg / Tm1 / Tm / Tm3 / Tonset / Tonset ø (mean) / Tagg ø (mean): temperatures in °C; conditions: anti-Fel d1 VHH
How it was run: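 Isolated VHH clones were heated from 20 °C to 95 °C at 1 °C/min using DSF. Tm, Tonset and Tagg were derived from the thermal curves. Where several melting transitions occurred, each was reported in order (Tm1, Tm2, etc.).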

[17] = molecular target: T3, Fel D1 (Felis catus, UniProt P30438+P30440); assay: Size Exclusion Chromatography test of Fel D1 neutralization (tetramer formation); design: species or system cat; conditions: 30 ug Fel D1 and 30 ug 1-C3 pre-incubated at 37° C. for 4 hours
T3 sequence (P30438 23-92): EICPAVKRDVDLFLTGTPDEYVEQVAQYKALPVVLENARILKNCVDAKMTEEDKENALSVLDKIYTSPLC
T3 sequence (P30440 18-109): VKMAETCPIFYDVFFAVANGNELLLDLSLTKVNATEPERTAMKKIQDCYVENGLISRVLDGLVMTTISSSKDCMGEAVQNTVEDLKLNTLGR
Protocol: Functional validation was also performed testing the capability of an exemplary clone to neutralize Fel D1. Fel D1 is naturally a weaker tetramer that causes allergic reactions by causing cross-linking of neighboring IgEs on immune cells (mast cells, etc.). […] On the SEC, there are two distinct peaks for pure Fel D1, the earlier peak representing the tetramer and the laker peak representing the monomer (FIG. 20A). Conditions for this SEC graph are (Column: Zenix-C SEC-80, 7.8×300 mm, 3 um, 80 Å; Sample: Fel D1; Sample Volume: 30 μL (25 ug); Mobile phase: 150 mM phosphate buffer, pH 7.0; Flow rate: 0.7 mL/min; Detection: UV 280 nm; System: Thermo Vanquish Flex.
Conditions for this SEC graph are (Column: Zenix-C SEC-80, 7.8×300 mm, 3 um, 80 Å; Sample: 1-C3; Sample Volume: 30 μL; Mobile phase: 150 mM phosphate buffer, pH 7.0; Flow rate: 0.7 mL/min; Detection: UV 280 nm; System: Thermo Vanquish Flex.
When clone C3 and Fel D1 are incubated together for 4 hours at 37° C. and then assayed, the two Fel D1 peaks were no longer detected and only the C3-Fel D1 complex is detected. […]

[18] = molecular target: Fel D1; assay: ELISA binding assay of anti-Fel d1 VHH clones on Fel D1 epitopes; design: species or system cat; conditions: Epitope Recognized ENARILKNCVDAKM (SEQ ID NO: 61), VAQYKALPVVLENA (SEQ ID NO: 58)

known Der p1 antibody (clone 10B9)
OD at 450 nm [1]: 0.2 OD
OD at 450 nm [2]: 0.13 OD
OD at 450 nm [3]: 4.03 OD
OD at 450 nm [4]: 1.87 OD
OD at 450 nm [5]: 0.25 OD
OD at 450 nm [6]: 0.49 OD
OD at 450 nm [7]: 0.12 OD
OD at 450 nm [8]: 4.4 OD
OD at 450 nm [9]: 4.37 OD
OD at 450 nm [10]: 0.17 OD
OD at 450 nm [11]: 0.12 OD
OD at 450 nm [12]: 4.31 OD
OD at 450 nm [13]: 1.8 OD
OD at 450 nm [14]: 0.58 OD

B1: SDAB22110-1-1-C3 (VHH)
VHH: QLQLVESGGGLVQPGGSLRLSCEASGFTFKYYTMSWYRQAPGKERELVATITNGDRTNYADSVKGRFTISRDNAKNTLYLQMNSLKPYDTAVYYCNRHLPLLQIWGQGTQVTVSS
notes: Expressed from a prokaryotic vector
EC50 [15]: 0.352 µg/mL

B2: SDAB22110-1-1-C3: anti-Fel d1 VHH clone, SEQ ID NO: 49 (protein)
VHH: AVQLVESGGGLVQPGGSLRLSCAASGFTFTNYAMRWYRQAPGKERELVAAIPTSGGYTYTADSVKGRFTISRDNAKNTVYLQMNSLKPEDTAVYYCYGLRTLSDYYWGQGTQVTVSS
Tagg [16]: 58.93
Tm ([16]; single melting point, in °C (unit assumed)): 66.50
Fel D1 tetramer formation (SEC) [17]: preventing the Fel D1 tetramer from forming
EC50 [18]: 0.352 µg/mL
